Results: US20130123350, “NUCLEIC ACID MOLECULE CAPABLE OF BINDING TO c-MET AND USE THEREOF” (KANAGAWA PREFECTURAL HOSPITAL ORGANIZATION, published 2013)

Columns and labels:
[1] = target: rec-NGFR (Recombinant Human NGF R/TNFRSF16/Fc Chimera) (Homo sapiens, UniProt P08138 SEQ:1-222); experiment: ELONA; signal below 40N; conditions: tags: C-terminal DIEGRMD linker, human IgG Fc (100-330), 6xHis; R&D Systems; chain copies: 2 (inferred, Fc chimera)
Experimental: Next, a 20-mer polyadenine (poly A) was added to the 3′ end of each of the RNA aptamers. Thus, poly-A-added RNA aptamers were prepared. Each of the poly-A-added RNA aptamers was denatured, and thereafter, the denatured poly-A-added RNA aptamer was mixed with a 20-mer biotinylated polythymine with its 5′ end being biotinylated (740 nmol/L), tRNA (100 μg/mL), and an RNase inhibitor (0.16 units/mL). As a result, complementary binding occurred between the poly A in the poly-A-added RNA aptamer and the polythymine (poly T) in the biotinylated polythymine, whereby a biotin-labeled RNA aptamer was produced. The biotin-labeled RNA aptamer was added to the plate, and the plate was incubated at 4° C. for 30 minutes. Subsequently, the plate was washed, and 0.1 μg/mL HRP-streptavidin (Thermo Fisher Scientific Inc., USA) was added thereto. The plate was then washed, after which a 1-Step Ultra TMB substrate (Thermo Fisher Scientific Inc., USA) was added to the plate to cause color development, and the absorbance at 450 nm was measured.
The binding ability of each of the RNA aptamers to the rec-NGFR was examined in the same manner as in Example 1, except that the rec-NGFR was bound to the plate. Also, as a comparative example, the 40N was used, and the binding ability thereof was examined in the same manner.

[2] = target: rec-cMet (Recombinant Human HGF R/c-MET/Fc Chimera) (Homo sapiens, UniProt P08581;P08581 SEQ:1-283,SEQ:1-625); experiment: ELONA; high binding; Table 2 misnumbers as SEQ 45; also SPR FIG. 11; conditions: tags: C-terminal HIEGRMD linker, human IgG Fc (100-330), 6xHis; R&D Systems; chain copies: 2 (inferred, Fc chimera)
Sequence of rec-cMet (Recombinant Human HGF R/c-MET/Fc Chimera) (P08581 25-307, change not shown, chain 1 of 2): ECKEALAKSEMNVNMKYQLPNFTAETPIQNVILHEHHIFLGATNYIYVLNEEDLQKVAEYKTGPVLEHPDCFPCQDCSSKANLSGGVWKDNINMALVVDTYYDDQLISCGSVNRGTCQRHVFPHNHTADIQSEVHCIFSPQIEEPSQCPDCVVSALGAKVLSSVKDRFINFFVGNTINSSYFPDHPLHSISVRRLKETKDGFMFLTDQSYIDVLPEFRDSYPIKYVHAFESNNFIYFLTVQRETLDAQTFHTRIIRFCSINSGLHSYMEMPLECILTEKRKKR
Sequence of rec-cMet (Recombinant Human HGF R/c-MET/Fc Chimera) (P08581 308-932, change not shown, chain 2 of 2): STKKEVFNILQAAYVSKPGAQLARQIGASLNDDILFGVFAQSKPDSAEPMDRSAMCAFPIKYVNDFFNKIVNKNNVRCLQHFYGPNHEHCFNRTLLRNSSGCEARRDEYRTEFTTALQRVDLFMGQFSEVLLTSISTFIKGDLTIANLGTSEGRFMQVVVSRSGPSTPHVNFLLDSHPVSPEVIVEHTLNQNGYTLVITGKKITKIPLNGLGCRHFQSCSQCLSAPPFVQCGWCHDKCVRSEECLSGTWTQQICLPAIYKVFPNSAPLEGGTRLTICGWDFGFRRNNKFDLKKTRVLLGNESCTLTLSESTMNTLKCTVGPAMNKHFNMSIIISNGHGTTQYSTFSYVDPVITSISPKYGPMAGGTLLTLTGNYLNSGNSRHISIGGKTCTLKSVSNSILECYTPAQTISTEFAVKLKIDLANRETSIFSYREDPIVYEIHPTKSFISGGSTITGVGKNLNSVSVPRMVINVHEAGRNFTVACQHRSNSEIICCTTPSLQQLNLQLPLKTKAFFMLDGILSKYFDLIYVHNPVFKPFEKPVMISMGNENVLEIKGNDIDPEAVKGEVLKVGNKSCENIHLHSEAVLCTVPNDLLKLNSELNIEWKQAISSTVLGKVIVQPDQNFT
Experimental: An anti-IgG antibody (trade name: “Human IgG-Fc Antibody”, Bethyl Laboratories) was adsorbed on a 96-well plate (Iwaki, AGC Techno Glass Co., Ltd., Japan), and then was subjected to blocking using 1% bovine serum albumin. Subsequently, 50 μL of the 1 μg/mL rec-cMet was added to the plate. Further, Tris (20 mmol/L), sodium chloride (100 mmol/L), magnesium acetate (0.1 mmol/L) and Triton (registered trademark)-X100 (0.2%) were added to the plate so that their final concentrations would be as shown in the parentheses. The plate was incubated at room temperature for 3 hours, thus causing the rec-cMet to bind to the plate. After the incubation, the plate was washed three times with a washing solution. The composition of the washing solution was as follows: 20 mmol/L Tris, 100 mmol/L sodium chloride, 0.1 mmol/L magnesium acetate, and 0.2% Triton (registered trademark)-X100. As a control, incubation and washing were carried out in the same manner, except that 50 μL of the washing solution was added instead of 50 μL of the rec-cMet.
Next, a 20-mer polyadenine (poly A) was added to the 3′ end of each of the RNA aptamers. Thus, poly-A-added RNA aptamers were prepared. […] The plate was then washed, after which a 1-Step Ultra TMB substrate (Thermo Fisher Scientific Inc., USA) was added to the plate to cause color development, and the absorbance at 450 nm was measured.

Sequence of rec-NGFR (Recombinant Human NGF R/TNFRSF16/Fc Chimera) (P08138 29-250, change not shown): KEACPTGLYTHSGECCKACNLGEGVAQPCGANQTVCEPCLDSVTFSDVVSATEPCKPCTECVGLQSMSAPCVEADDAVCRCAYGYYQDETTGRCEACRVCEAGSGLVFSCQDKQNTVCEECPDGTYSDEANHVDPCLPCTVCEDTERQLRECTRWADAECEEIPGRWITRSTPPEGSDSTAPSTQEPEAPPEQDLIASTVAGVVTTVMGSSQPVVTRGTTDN

B1: g6 (ssRNA)
RNA: GGGACGCUCACGUACGCUAAUCCAGGUGUGGCGAGCCACUGUAAGAGUCGCCGUGAGGAUUCAGUGCCUGGACGUGCAGU
- binding result [1]: no binding
- binding result [2]: binds
